{
  "source": "paper PMC7717530",
  "about": "“EphA7 isoforms differentially regulate cortical dendrite development” (PLoS ONE, 2020)",
  "biological_target": "EphA7 full-length isoform with hemagglutinin tag (EphA7-FL-HA) (UniProt Q61772-1 28-998)",
  "sequence (Q61772 28-998)": "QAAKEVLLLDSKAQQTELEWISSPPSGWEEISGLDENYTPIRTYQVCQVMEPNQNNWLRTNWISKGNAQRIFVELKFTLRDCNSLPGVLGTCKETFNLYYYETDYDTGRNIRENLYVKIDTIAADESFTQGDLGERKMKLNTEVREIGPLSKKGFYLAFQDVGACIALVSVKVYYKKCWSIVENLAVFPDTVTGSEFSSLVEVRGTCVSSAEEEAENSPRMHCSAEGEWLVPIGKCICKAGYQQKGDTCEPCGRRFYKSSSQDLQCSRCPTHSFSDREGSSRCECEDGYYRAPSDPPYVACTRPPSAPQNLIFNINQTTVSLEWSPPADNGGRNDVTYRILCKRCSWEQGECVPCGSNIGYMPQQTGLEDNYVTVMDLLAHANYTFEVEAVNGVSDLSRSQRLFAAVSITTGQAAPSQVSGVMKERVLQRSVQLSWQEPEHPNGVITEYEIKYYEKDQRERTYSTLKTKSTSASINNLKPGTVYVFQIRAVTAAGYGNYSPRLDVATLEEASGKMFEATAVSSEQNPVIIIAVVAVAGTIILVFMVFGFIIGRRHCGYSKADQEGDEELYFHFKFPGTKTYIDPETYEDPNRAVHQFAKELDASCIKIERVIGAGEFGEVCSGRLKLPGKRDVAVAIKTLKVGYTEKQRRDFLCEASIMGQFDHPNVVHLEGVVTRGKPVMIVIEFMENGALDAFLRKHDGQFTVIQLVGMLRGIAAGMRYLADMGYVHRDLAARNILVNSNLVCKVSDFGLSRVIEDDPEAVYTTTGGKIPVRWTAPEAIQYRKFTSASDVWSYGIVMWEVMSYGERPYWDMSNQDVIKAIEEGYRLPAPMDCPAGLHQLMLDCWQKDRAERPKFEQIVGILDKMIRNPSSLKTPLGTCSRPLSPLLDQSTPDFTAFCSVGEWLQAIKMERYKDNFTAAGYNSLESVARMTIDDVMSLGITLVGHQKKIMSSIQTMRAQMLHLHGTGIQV",
  "assay": "cell-based or functional assay",
  "data": [
    {"binder": "EphA7 truncated isoform with myc tag (EphA7-T1-myc) (receptor) not shown", "values": [
      {"measurement": "EphA7-FL tyrosine phosphorylation (phospho-tyrosine over total HA after HA IP) in HEK cells stimulated with clustered ephrin-A5-hFC, at EphA7-T1:FL ratios 1:1 (65%) and 5:1 (42%) compared to 0.2:1", "value": "65 % of EphA7-FL tyrosine phosphorylation compared to a ratio of 0.2:1"}
    ]}
  ]
}
